In assay [1] the target is 6HB (HR1-linker-HR2) of SARS-CoV-2 fusion protein (SARS-CoV-2) (UniProt P0DTC2). The assay can be described thus: AUC; sedimentation velocity, 50,000 rpm, 20 C, 50 mM NaCl, 25 mM sodium phosphate pH 6.0, no detergent; monomer to tetramer.
For assay [2] the target is unchanged. The assay can be described thus: SEC-MALS; Superose-12, room temperature, 20 mM sodium phosphate pH 6.0, 30 mM NaCl; injected 65 uM 6HB, 90 uM HR1. In general terms: Size exclusion chromatography separates by hydrodynamic size, large species first.
In assay [3] the target is HR1 (heptad repeat 1) domain of SARS-CoV-2 spike protein (SARS-CoV-2) (UniProt P0DTC2). The experiment in a line: AUC; sedimentation velocity, 50,000 rpm, 20 C, 50 mM NaCl, 25 mM sodium phosphate pH 6.0, no detergent; monomer to tetramer.

The stoichiometry N is a count of units in the complex or per binding partner.

With “6HB (HR1-linker-HR2) of SARS-CoV-2 fusion protein (from UniProt P0DTC2 918-965; P0DTC2 1171-1207)”, the stoichiometry N in assay [1] and in assay [2] was 3 each time. For “HR1 (heptad repeat 1) domain of SARS-CoV-2 spike protein (from UniProt P0DTC2 918-965) (domain or fragment)”, in assay [3], the stoichiometry N was found to be 4.

(Values after PMC8500521.)
